According to publication PMC9537944, “eIF4G1 N-terminal intrinsically disordered domain is a multi-docking station for RNA, Pab1, Pub1, and self-assembly” (Frontiers in Molecular Biosciences, 2022):

T1: eIF4G1 1-82 (Saccharomyces cerevisiae, UniProt P39935 1-82)
T1 sequence: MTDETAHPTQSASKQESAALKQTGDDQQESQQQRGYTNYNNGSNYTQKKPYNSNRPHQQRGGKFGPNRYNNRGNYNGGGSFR


Key:
[1] = molecular target: the molecule itself; experiment: NMR paramagnetic relaxation enhancement (intermolecular PRE); 15N-labelled wild-type eIF4G1 1-249 mixed 1:1 with TEMPO spin-labelled eIF4G1 1-249 Q109C at natural isotopic abundance; intensity ratios of 1H-15N HSQC peaks, oxidised against ascorbate-reduced label; 25 mM potassium phosphate pH 6.5, 25 mM NaCl, 1 mM DTT
eIF4G1 1-82 = molecular target: T1, eIF4G1 1-82; experiment: NMR (1H-15N HSQC titration); shifts centered at R34, R55, G65; new Arg side-chain NeHe signal; NMR: 25 mM potassium phosphate pH 6.5, 25 or 150 mM NaCl, 1 mM DTT, 10% D2O, 25 C, 800 MHz (general NMR conditions; not stated specifically for RNA titrations); settings: protein: recombinant; tags: N-terminal gs left after TEV cleavage of TrxA-6xHis; single strand

| Binder | binding result [1] | binding result (eIF4G1 1-82) |
| --- | --- | --- |
| eIF4G1_(1-249), N-terminal intrinsically disordered region of eIF4G1 (domain or fragment, Saccharomyces cerevisiae, UniProt P39935 1-249, looked up, 15N-labelled where it was the observed partner; Minor isoaspartate forms (12%-14%) are reported at positions 41 and 76; In the intermolecular PRE experiment the second copy was the Q109C mutant carrying a TEMPO spin label; also called eIF4G1 IDR; not shown: thioredoxin A, N-terminal, cleaved; 6xHis, internal (between thioredoxin A and the TEV site), cleaved) MTDETAHPTQSASKQESAALKQTGDDQQESQQQRGYTNYNNGSNYTQKKPYNSNRPHQQRGGKFGPNRYNNRGNYNGGGSFRGGHMGANSSNVPWTGYYNNYPVYYQPQQMAAAGSAPANPIPVEEKSPVPTKIEITTKSGEHLDLKEQHKAKLQSQERSTVSPQPESKLKETSDSTSTSTPTPTPSTNDSKASSEENISEAEKTRRNFIEQVKLRKAALEKKRKEQLEGSSGNNNIPMKTTPENVEEK | binds | – |
| AAAAAAAAAAAAAA (ssRNA) [A14] | – | binds |
